Reference: the supplement of paper PMC10567573

B1: DLC1 (parent)
chain: HVTHWMGQPFNSDDRNTACHHGLV

Variants of: B1
Test: protein stability index of a GFP-peptide fusion (GPS, HEK-293T) (PSI 1-6); higher = more stable
Details: c terminus: a fixed tail appended
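Note: lentivirally expressed fusions sorted by FACS into six bins by GFP to DsRed ratio, PSI derived from sequencing read proportions per bin multiplied by bin number.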

Variant	protein stability index
HVTHWMGQPFNSDDRNGACHHGLV [T17G]	2.04
HVTHWMGQPFNSDDRNRACHHGLV [T17R]	1.99
HVTHWMGQPFNSDDRNFACHHGLV [T17F]	2.06
HVTHWMGQPFNSDDRNWACHHGLV [T17W]	1.82
HVTHWMGQPFNSDDRNNACHHGLV [T17N]	2.21
HVTHWMGQPFNSDDRNCACHHGLV [T17C]	1.66
HVTHWMGQPFNSDDRNMACHHGLV [T17M]	1.72
HVTHWMGQPFNSDDRNPACHHGLV [T17P]	2.17
HVTHWMGQPFNSDDRNQACHHGLV [T17Q]	2.38
HVTHWMGQPFNSDMRNTACHHGLV [D14M]	1.64
HVTHWMGQPFNSDYRNTACHHGLV [D14Y]	1.44
HVTHWMGQPFNSDVRNTACHHGLV [D14V]	1.71
HVTHWMGQPFNSDRRNTACHHGLV [D14R]	2.01
HVTHWMGQPFNSDTRNTACHHGLV [D14T]	1.99
HVHHWMGQPFNSDDRNTACHHGLV [T3H]	1.93
HVSHWMGQPFNSDDRNTACHHGLV [T3S]	1.64
HVLHWMGQPFNSDDRNTACHHGLV [T3L]	1.59
HVWHWMGQPFNSDDRNTACHHGLV [T3W]	1.4
HVGHWMGQPFNSDDRNTACHHGLV [T3G]	1.19
HVRHWMGQPFNSDDRNTACHHGLV [T3R]	1.95
HVAHWMGQPFNSDDRNTACHHGLV [T3A]	2.5
HVCHWMGQPFNSDDRNTACHHGLV [T3C]	1.8
HVTHWMGQPFNSDDRNTACHHGSV [L23S]	2.24
HVTHWMGQPFNSDDRNTACHHGHV [L23H]	2.46

Variant	protein stability index
HVTHWMGQPFNSDDRNTACHHGNV [L23N]	2.37
HVTHWMGQPFNSDDRNTACHHGGV [L23G]	2.49
HVTHWMGQPFNSDDRNTACHHGQV [L23Q]	2.38
HVTHWMGQPFNSDDRNTACHHGAV [L23A]	2.51
HVTHWMGQPFNSDDRNTACHHGYV [L23Y]	2.07
HVTHWMGQPFNSDDRNTACHHGRV [L23R]	2.47
NVTHWMGQPFNSDDRNTACHHGLV [H1N]	2.76
IVTHWMGQPFNSDDRNTACHHGLV [H1I]	1.83
WVTHWMGQPFNSDDRNTACHHGLV [H1W]	1.78
AVTHWMGQPFNSDDRNTACHHGLV [H1A]	2.68
VVTHWMGQPFNSDDRNTACHHGLV [H1V]	2.51
QVTHWMGQPFNSDDRNTACHHGLV [H1Q]	2.68
KVTHWMGQPFNSDDRNTACHHGLV [H1K]	2.46
GVTHWMGQPFNSDDRNTACHHGLV [H1G]	3.08
RVTHWMGQPFNSDDRNTACHHGLV [H1R]	2.31
HVTHWMGQPFNSDDRNTACHHGLS [V24S]	2.35
HVTHWMGQPFNSDDRNTACHHGLR [V24R]	2.22
HVTHWMGQPFNSDDRNTACHHGLD [V24D]	2.66
HVTHWMGQPFNSDDRNTACHHGLN [V24N]	2.05
HVTHWMGQPFNSDDRNTACHHGLM [V24M]	2.04
HVTHWMGQPFNSDDRNTACHHGLH [V24H]	2.28
HVTHWMGQPFNSDDRNTACHHGLY [V24Y]	1.69
HVTHWMGQPFNSDDRNTACHHGLP [V24P]	2.22
HVTHWMGQPFNSDDRNTACHHGLA [V24A]	2.31

Variant	protein stability index
HVTHWMGQPFNSDDRNTACHHGLW [V24W]	2.09
HVTHWMGQPFNSDDRNTACNHGLV [H20N]	2.2
HVTHWMGQPFNSDDRNTACPHGLV [H20P]	2.5
HVTHWMGQPFNSDDRNTACFHGLV [H20F]	2.3
HVTHWMGQPFNSDDRNTACKHGLV [H20K]	2.41
HVTHWMGQPFNSDDRNTACTHGLV [H20T]	2.25
HVTHWMGQPFNSDDRNTACQHGLV [H20Q]	2.46
HVTHWMGQPFNSDDRNTACRHGLV [H20R]	2.25
HRTHWMGQPFNSDDRNTACHHGLV [V2R]	3.05
HFTHWMGQPFNSDDRNTACHHGLV [V2F]	2.71
HATHWMGQPFNSDDRNTACHHGLV [V2A]	2.8
HKTHWMGQPFNSDDRNTACHHGLV [V2K]	2.65
HTTHWMGQPFNSDDRNTACHHGLV [V2T]	2.71
HITHWMGQPFNSDDRNTACHHGLV [V2I]	2.22
HCTHWMGQPFNSDDRNTACHHGLV [V2C]	2.48
HLTHWMGQPFNSDDRNTACHHGLV [V2L]	2.74
HMTHWMGQPFNSDDRNTACHHGLV [V2M]	2.71
HQTHWMGQPFNSDDRNTACHHGLV [V2Q]	2.87
HPTHWMGQPFNSDDRNTACHHGLV [V2P]	3.15
HVTHWMGIPFNSDDRNTACHHGLV [Q8I]	2.66
HVTHWMGAPFNSDDRNTACHHGLV [Q8A]	2.26
HVTHWMGMPFNSDDRNTACHHGLV [Q8M]	1.28
HVTHWMGNPFNSDDRNTACHHGLV [Q8N]	1.92
HVTHWMGDPFNSDDRNTACHHGLV [Q8D]	2.03

Variant	protein stability index
HVTHWMGFPFNSDDRNTACHHGLV [Q8F]	2.05
HVTHWMGRPFNSDDRNTACHHGLV [Q8R]	2.15
HVTHWMGVPFNSDDRNTACHHGLV [Q8V]	1.77
HVTHWMGGPFNSDDRNTACHHGLV [Q8G]	1.81
HVTHWMGKPFNSDDRNTACHHGLV [Q8K]	2.27
HVTHWMGPPFNSDDRNTACHHGLV [Q8P]	2.1
HVTHWMGSPFNSDDRNTACHHGLV [Q8S]	2.15
HVTHIMGQPFNSDDRNTACHHGLV [W5I]	3.02
HVTHRMGQPFNSDDRNTACHHGLV [W5R]	3.56
HVTHLMGQPFNSDDRNTACHHGLV [W5L]	2.53
HVTHGMGQPFNSDDRNTACHHGLV [W5G]	3.89
HVTHVMGQPFNSDDRNTACHHGLV [W5V]	3.55
HVTHEMGQPFNSDDRNTACHHGLV [W5E]	4.26
HVTHCMGQPFNSDDRNTACHHGLV [W5C]	3.33
HVTHAMGQPFNSDDRNTACHHGLV [W5A]	3.26
HVTHWMGQPFNQDDRNTACHHGLV [S12Q]	1.98
HVTHWMGQPFNRDDRNTACHHGLV [S12R]	2.01
HVTHWMGQPFNDDDRNTACHHGLV [S12D]	2.62
HVTHWMGQPFNVDDRNTACHHGLV [S12V]	1.8
HVTHWMGQPFNCDDRNTACHHGLV [S12C]	1.51
HVTHWMGQPFNYDDRNTACHHGLV [S12Y]	1.78
HVTHWMGQPFNNDDRNTACHHGLV [S12N]	2.55
HVTHWMGQPFNLDDRNTACHHGLV [S12L]	2.11
HVTHWMGQPFNSDDRNTACHHALV [G22A]	2.49

Variant	protein stability index
HVTHWMGQPFNSDDRNTACHHILV [G22I]	1.34
HVTHWMGQPFNSDDRNTACHHSLV [G22S]	1.93
HVTHWMGQPFNSDDRNTACHHVLV [G22V]	1.89
HVTHWMGQPFNSDDRNTACHHWLV [G22W]	2.38
HVTHWMGQPFNSDDRNTAPHHGLV [C19P]	2.43
HVTHWMGQPFNSDDRNTAKHHGLV [C19K]	2.2
HVTHWMGQPFNSDDRNTANHHGLV [C19N]	2.43
HVTHWMGQPFNSDDRNTAQHHGLV [C19Q]	2.61
HVTHWMGQPFNSDDRNTAHHHGLV [C19H]	2.13
HVTHWMGQPFNSDDRNTASHHGLV [C19S]	2.41
HVTHWMGQPFNSDDRNTATHHGLV [C19T]	2.61
HVTHWMGQPFNSDDKNTACHHGLV [R15K]	2.11
HVTHWMGQPFNSDDENTACHHGLV [R15E]	2.32
HVTHWMGQPFNSDDWNTACHHGLV [R15W]	1.73
HVTHWMGQPFNSDDTNTACHHGLV [R15T]	2.31
HVTHWMGQPFNSDDNNTACHHGLV [R15N]	2.38
HVTHWMWQPFNSDDRNTACHHGLV [G7W]	3.07
HVTHWMLQPFNSDDRNTACHHGLV [G7L]	2.26
HVTHWMNQPFNSDDRNTACHHGLV [G7N]	2.23
HVTHWMMQPFNSDDRNTACHHGLV [G7M]	1.39
HVTHWMTQPFNSDDRNTACHHGLV [G7T]	1.91
HVTHWMFQPFNSDDRNTACHHGLV [G7F]	2.45
HVTHWMSQPFNSDDRNTACHHGLV [G7S]	1.65
HVTHWMVQPFNSDDRNTACHHGLV [G7V]	1.84

Variant	protein stability index
HVTHWMYQPFNSDDRNTACHHGLV [G7Y]	1.88
HVTVWMGQPFNSDDRNTACHHGLV [H4V]	2.08
HVTIWMGQPFNSDDRNTACHHGLV [H4I]	1.89
HVTLWMGQPFNSDDRNTACHHGLV [H4L]	1.7
HVTTWMGQPFNSDDRNTACHHGLV [H4T]	2.38
HVTWWMGQPFNSDDRNTACHHGLV [H4W]	1.6
HVTCWMGQPFNSDDRNTACHHGLV [H4C]	2.49
HVTHWMGQPMNSDDRNTACHHGLV [F10M]	2.53
HVTHWMGQPHNSDDRNTACHHGLV [F10H]	2.05
HVTHWMGQPENSDDRNTACHHGLV [F10E]	2.75
HVTHWMGQPGNSDDRNTACHHGLV [F10G]	2.77
HVTHWMGQPPNSDDRNTACHHGLV [F10P]	2.54
HVTHWMGQPNNSDDRNTACHHGLV [F10N]	2.86
HVTHWMGQPFNSDDRQTACHHGLV [N16Q]	2.67
HVTHWMGQPFNSDDRRTACHHGLV [N16R]	2.16
HVTHWMGQPFNSDDRGTACHHGLV [N16G]	1.97
HVTHWMGQPFNSDDRITACHHGLV [N16I]	2.13
HVTHWMGQPFNSDDRTTACHHGLV [N16T]	1.99
HVTHWMGQPFNSDDRPTACHHGLV [N16P]	1.64
HVTHWMGQPFNSDDRETACHHGLV [N16E]	2.35
HVTHWMGQPFNSDDRFTACHHGLV [N16F]	1.92
HVTHWMGQTFNSDDRNTACHHGLV [P9T]	2.29
HVTHWMGQLFNSDDRNTACHHGLV [P9L]	2
HVTHWMGQRFNSDDRNTACHHGLV [P9R]	2.21

Variant	protein stability index
HVTHWMGQEFNSDDRNTACHHGLV [P9E]	2.3
HVTHWMGQMFNSDDRNTACHHGLV [P9M]	2.38
HVTHWMGQHFNSDDRNTACHHGLV [P9H]	2.23
HVTHWMGQCFNSDDRNTACHHGLV [P9C]	1.75
HVTHWMGQYFNSDDRNTACHHGLV [P9Y]	2.43
HVTHWMGQPFNSDDRNTMCHHGLV [A18M]	2.11
HVTHWMGQPFNSDDRNTWCHHGLV [A18W]	1.88
HVTHWMGQPFNSDDRNTGCHHGLV [A18G]	2.06
HVTHWMGQPFNSDDRNTYCHHGLV [A18Y]	2.37
HVTHWMGQPFNSDDRNTDCHHGLV [A18D]	2.69
HVTHWMGQPFNSWDRNTACHHGLV [D13W]	1.6
HVTHWMGQPFNSYDRNTACHHGLV [D13Y]	2.26
HVTHWMGQPFNSMDRNTACHHGLV [D13M]	1.13
HVTHWMGQPFNSIDRNTACHHGLV [D13I]	1.92
HVTHWMGQPFNSSDRNTACHHGLV [D13S]	1.72
HVTHWMGQPFNSRDRNTACHHGLV [D13R]	1.62
HVTHWMGQPFNSQDRNTACHHGLV [D13Q]	1.62
HVTHWMGQPFNSNDRNTACHHGLV [D13N]	2.11
HVTHWMGQPFNSTDRNTACHHGLV [D13T]	1.94
HVTHWMGQPFNSHDRNTACHHGLV [D13H]	1.77
HVTHWDGQPFNSDDRNTACHHGLV [M6D]	3.03
HVTHWRGQPFNSDDRNTACHHGLV [M6R]	2.63
HVTHWEGQPFNSDDRNTACHHGLV [M6E]	3.24
HVTHWSGQPFNSDDRNTACHHGLV [M6S]	2.4

Variant	protein stability index
HVTHWTGQPFNSDDRNTACHHGLV [M6T]	2.12
HVTHWYGQPFNSDDRNTACHHGLV [M6Y]	2.23
HVTHWQGQPFNSDDRNTACHHGLV [M6Q]	2.74
HVTHWWGQPFNSDDRNTACHHGLV [M6W]	2.15
HVTHWFGQPFNSDDRNTACHHGLV [M6F]	2.02
HVTHWMGQPFTSDDRNTACHHGLV [N11T]	2.02
HVTHWMGQPFDSDDRNTACHHGLV [N11D]	2.58
HVTHWMGQPFMSDDRNTACHHGLV [N11M]	2.07
HVTHWMGQPFLSDDRNTACHHGLV [N11L]	2.14
HVTHWMGQPFFSDDRNTACHHGLV [N11F]	1.65
HVTHWMGQPFSSDDRNTACHHGLV [N11S]	1.69
HVTHWMGQPFQSDDRNTACHHGLV [N11Q]	2.23
HVTHWMGQPFNSDDRNTACHDGLV [H21D]	2.58
HVTHWMGQPFNSDDRNTACHWGLV [H21W]	1.69
HVTHWMGQPFNSDDRNTACHKGLV [H21K]	2.7
HVTHWMGQPFNSDDRNTACHMGLV [H21M]	2.21
HVTHWMGQPFNSDDRNTACHAGLV [H21A]	2.38
HVTHWMGQPFNSDDRNTACHLGLV [H21L]	1.93
HVTHWMGQPFNSDDRNTACHCGLV [H21C]	2.69
HVTHWMGQPFNSDDRNTACHEGLV [H21E]	2.51
